Self-cleavage data for 20 variants are collected here from the RNAGym collection of RNA variant scans (doi:10.7554/elife.90254).

B1: LINE1-full (parent)
chain: UACGUAGGUGGUUUUCCCCUGAUAGUGCUAAGGGGGCCUGGAAGUUUGGACUGGGCAGAGCUCAACACAGCGUGGCAAAGUGGCUGUGGCUAGACUGCCUCUCUGGAUUCCUCGUCACUCAGCAGGGCAUCUCUGAGAGAAAUGCC

The variants in the data set derive from B1. In words: self-cleavage, relative activity (ratio to wild type); higher = more cleavage; in vitro, sequencing; the parent is a self-cleaving ribozyme.
In the case of UACGUAGGUGGUUUUCCCCUGGUAGUGCCAAGGGGGCCUGGAAGUUUGGACUGGGCAGAGCUCAACACAGCGUGGCAAAGUGGCUGUGGCUAGACUGCCUCUCUGGAUUCCUCGUCACUCAGCAGGGCAUCUCUGAGAGAAAUGCC [A22G U29C], the self-cleavage turned out to be 1.42.

Turning to UACGUAGGUGGUUUUCCCCUGGUAGUGCUAAGGGGGCCUGGAAGAUUGGACUGGGCAGAGCUCAACACAGCGUGGCAAAGUGGCUGUGGCUAGACUGCCUCUCUGGAUUCCUCGUCACUCAGCAGGGCAUCUCUGAGAGAAAUGCC [A22G U45A], the self-cleavage was found to be 0.94. Next, UACGUAGGUGGUUUUCCCCUGGUAGUGCUAAGGGGGCCUGGAAGGUUGGACUGGGCAGAGCUCAACACAGCGUGGCAAAGUGGCUGUGGCUAGACUGCCUCUCUGGAUUCCUCGUCACUCAGCAGGGCAUCUCUGAGAGAAAUGCC [A22G U45G]: 0.82; UACGUAGGUGGUUUUCCCCUGGUAGUGCUAAGGGGGCCUGGAAGUUUGGACUGGGCAGAGCUCAACACAGCGUGGCAAAGUGGCUGUGGCUAGACUGCCUCUCUGGAUUCCUCGUCACUCAGCAGGUCAUCUCUGAGAGAAAUGCC [A22G G127U]: 1.67. As for UACGUAGGUGGUUUUCCCCUGGUAGUGCUAAGGGGGCCUGGAAGUUUGGACUGGGCAGAGCUCAACACAGCGUGGCAAAGUGGCUGUGGCCAGACUGCCUCUCUGGAUUCCUCGUCACUCAGCAGGGCAUCUCUGAGAGAAAUGCC [A22G U91C], the figure is 0.65; as for UACGUAGGUGGUUUUCCCCUGGUAGUGCUAAGGGGGCCUGGAAGUUUGGACUGGGCAGAGCUCAACACAGCGUGGCAAAGUGGCUGUGGCAAGACUGCCUCUCUGGAUUCCUCGUCACUCAGCAGGGCAUCUCUGAGAGAAAUGCC [A22G U91A], 0.71; as for UACGUAGGUGGUUUUCCCCUGGUAGUGCUAAGGGGGCCUGGAAGUUUGGACUGGGCAGAGCUCAACACAGCGAGGCAAAGUGGCUGUGGCUAGACUGCCUCUCUGGAUUCCUCGUCACUCAGCAGGGCAUCUCUGAGAGAAAUGCC [A22G U73A], 1.29.

For the variant UACGUAGGUGGUUUUCCCCUGGUAGUGCUAAGGGGGCCUGGAAGUUUGGACUGGGCAGAGCUCAACACAGCGUGGCAAAGUGGCUGUGGCUAGACUGCCUCUCUGGAUUCCUCGUCACUCACCAGGGCAUCUCUGAGAGAAAUGCC [A22G G122C], the self-cleavage is 1.31. Consider UACGUAGGUGGUUUUCCCCUGGUAGUGCUAAGGGGGCCAGGAAGUUUGGACUGGGCAGAGCUCAACACAGCGUGGCAAAGUGGCUGUGGCUAGACUGCCUCUCUGGAUUCCUCGUCACUCAGCAGGGCAUCUCUGAGAGAAAUGCC [A22G U39A], for which the self-cleavage is 1.72. Next, UACGUAGGUGGUUUUCCCCUGGUAGUGCUAAGGGGGCCCGGAAGUUUGGACUGGGCAGAGCUCAACACAGCGUGGCAAAGUGGCUGUGGCUAGACUGCCUCUCUGGAUUCCUCGUCACUCAGCAGGGCAUCUCUGAGAGAAAUGCC [A22G U39C]: 1.14. With UACGUAGGUGGUUUUCCCCUGGCAGUGCUAAGGGGGCCUGGAAGUUUGGACUGGGCAGAGCUCAACACAGCGUGGCAAAGUGGCUGUGGCUAGACUGCCUCUCUGGAUUCCUCGUCACUCAGCAGGGCAUCUCUGAGAGAAAUGCC [A22G U23C], the self-cleavage was 0.63.

As for UACGUAGGUGGUUUUCCCCUGGUAGUGCUAAGGGGGCCUGGAAGUUUGGACUGGGCAGAGCUCAACACAGCGUGGCAAAGUGGCUGUGGCUAGACAGCCUCUCUGGAUUCCUCGUCACUCAGCAGGGCAUCUCUGAGAGAAAUGCC [A22G U96A], the self-cleavage was 0.13.

As to UACGUAGGUGGUUUUCCCCUGGUAGUGCUAAGGGGGCCUGGAAGUUUGGACGGGGCAGAGCUCAACACAGCGUGGCAAAGUGGCUGUGGCUAGACUGCCUCUCUGGAUUCCUCGUCACUCAGCAGGGCAUCUCUGAGAGAAAUGCC [A22G U52G], the self-cleavage stood at 0.92. As for UACGUAGGUGGUUUUCCCCUGGUAGUGCUAAGGGGGCCUGGAAGUUUGGACCGGGCAGAGCUCAACACAGCGUGGCAAAGUGGCUGUGGCUAGACUGCCUCUCUGGAUUCCUCGUCACUCAGCAGGGCAUCUCUGAGAGAAAUGCC [A22G U52C], the figure is 1.56; as for UACGUAGGUGGUUUUCCCCUGGUAGUGCUAAGGGGGCCUGGAAGUUUGGACUGGGCAGAGCCCAACACAGCGUGGCAAAGUGGCUGUGGCUAGACUGCCUCUCUGGAUUCCUCGUCACUCAGCAGGGCAUCUCUGAGAGAAAUGCC [A22G U62C], 0.09. Next, UACGUAGGUGGUUUUCCCCUGGUAGUGCUAAGGGGGCCUGGAAGUUCGGACUGGGCAGAGCUCAACACAGCGUGGCAAAGUGGCUGUGGCUAGACUGCCUCUCUGGAUUCCUCGUCACUCAGCAGGGCAUCUCUGAGAGAAAUGCC [A22G U47C]: 1.18; UACGUAGGUGGUUUUCCCCUGGUAGUGCUAAGGGGGCCUGGAAGUUUGGACUGGGCAGAGCUCAACACAGCGUGGCAAAGAGGCUGUGGCUAGACUGCCUCUCUGGAUUCCUCGUCACUCAGCAGGGCAUCUCUGAGAGAAAUGCC [A22G U81A]: 1.67; UACGUAGGUGGUUUUCCCCUGGUAGUGCUAAGGGGGCCUGGAAGUCUGGACUGGGCAGAGCUCAACACAGCGUGGCAAAGUGGCUGUGGCUAGACUGCCUCUCUGGAUUCCUCGUCACUCAGCAGGGCAUCUCUGAGAGAAAUGCC [A22G U46C]: 1.04. Next, UACGUAGGUGGUUUUCCCCUGGUAGUGCUAAGGGGGCCUGGAAGUUUGGACUGGGCAGAGCUCAACACAGCGUGGCAAAGUGGCUGUGGCUAGACUGCCUCUCUGGAUUCCUCGUCACUCAGCAGGGCAUCUCUGAGAAAAAUGCC [A22G G139A]: 1.82. As to UACGUAGGUGGUUUUCCCCUGGUAGUGCUAAGGGGGCCUGGAAGUUUGGACUGGGCAGAGCUCAACACAGCGUGGCAAAGUGGCAGUGGCUAGACUGCCUCUCUGGAUUCCUCGUCACUCAGCAGGGCAUCUCUGAGAGAAAUGCC [A22G U85A], the self-cleavage worked out at 0.12.
